Biological target: human tumor necrosis factor-alpha (hTNFα) (human, UniProt P01375 77-233)
Test: cell-based or functional assay

human tumor necrosis factor-alpha (hTNFα), sequence (P01375 77-233): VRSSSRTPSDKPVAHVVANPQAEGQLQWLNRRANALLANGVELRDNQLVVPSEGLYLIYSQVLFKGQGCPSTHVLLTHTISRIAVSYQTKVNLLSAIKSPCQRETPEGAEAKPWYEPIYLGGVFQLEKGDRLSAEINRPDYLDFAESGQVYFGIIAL

B1: p75P-sf2 TNF receptor/IgG1 fusion protein (Fc fusion)
chain: QLPAQVAFTPYAPEPGSTCRLREYYDQTAQMCCSKCSPGQHAKVFCTKTSDTVCDSCEDSTYTQLWNWVPECLSCGSRCSSDQVETQACTREQNRICTCRPGWYCALSKQEGCRLCAPLRKCRPGFGVARPGTETSDVVCKPCAPGTFSNTTSSTDICRPHQICNVVAIPGNASMDAVCTSTSGTLVTVSS
IC50: concentration of fusion protein required to inhibit 2 ng/ml (39.2 pM) TNFα by 50%, WEHI 164 cytotoxicity assay: 70 pM

B2: p55-sf2 TNF receptor/IgG1 fusion protein (Fc fusion)
chain: QVCPQGKYIHPQNNSICCTKCHKGTYLYNDCPGPGQDTDCRECESGSFTASENHLRHCLSCSKCRKEMGQVEISSCTVDRDTVCGCRKNQYRHYWSENLFQCFNCSLCLNGTVHLSCQEKQNTVCTCHAGFFLRENECVSCSNCKKSLECTKLCLPQIPGTLVTVSS
IC50: concentration of fusion protein required to inhibit 2 ng/ml (39.2 pM) TNFα by 50%, WEHI 164 cytotoxicity assay: 70 pM

— patent US20060140946A1 (published 2006)
